Laboratory results published in PMC11222974, “The effect of ADAMTS13 on graft‐versus‐host disease” (Journal of Cellular and Molecular Medicine, 2024).
One block for each molecule: values may come before it.

How the values were obtained:
integrin αL chain = integrin αL chain (UniProt P20701); assay: SPR; Biacore 3000, 25°C; integrin αL amine-coupled to CM5 (~500 RU), soluble VWF or VWF-A2 flowed over at 30 μL/min in TBSTG (25 mM Tris pH 7.5, 150 mM NaCl, 0.05% Tween, 2% glycerol); apparent
[1] = target: T1, factor VIII‐free Von Willebrand factor (human, UniProt P04275 764-2813); assay: SPR; Biacore 3000, 25°C; factor VIII-free VWF amine-coupled to CM5 (~3000 RU after TCEP), αL flowed over at 30 μL/min in TBSTG (25 mM Tris pH 7.5, 150 mM NaCl, 0.05% Tween, 2% glycerol); two-state binding model; apparent; conditions: both partners purified
T1 construct: Von Willebrand factor, human, factor VIII-free; multimeric; molar concentration counted with a monomeric MW of 260 kDa; Multimeric protein; On the SPR chip it was treated with 10 mM TCEP after coupling; also called VWF; recombinant human factor VIII‐free VWF; source: bought: Haematologic Technologies / Prolytix, catalogue HCVWF‐0191

- Kd (integrin αL chain): 94 nM
- ka1 (integrin αL chain): 140000 M⁻¹ s⁻¹
- kd1 (integrin αL chain): 0.013 s⁻¹
Molecule: recombinant VWF‐A2 protein (domain or fragment)

- Kd [1]: 120 nM
B1: integrin αL chain (receptor, UniProt P20701 26-1090, looked up)
chain: YNLDVRGARSFSPPRAGRHFGYRVLQVGNGVIVGAPGEGNSTGSLYQCQSGTGHCLPVTLRGSNYTSKYLGMTLATDPTDGSILACDPGLSRTCDQNTYLSGLCYLFRQNLQGPMLQGRPGFQECIKGNVDLVFLFDGSMSLQPDEFQKILDFMKDVMKKLSNTSYQFAAVQFSTSYKTEFDFSDYVKRKDPDALLKHVKHMLLLTNTFGAINYVATEVFREELGARPDATKVLIIITDGEATDSGNIDAAKDIIRYIIGIGKHFQTKESQETLHKFASKPASEFVKILDTFEKLKDLFTELQKKIYVIEGTSKQDLTSFNMELSSSGISADLSRGHAVVGAVGAKDWAGGFLDLKADLQDDTFIGNEPLTPEVRAGYLGYTVTWLPSRQKTSLLASGAPRYQHMGRVLLFQEPQGGGHWSQVQTIHGTQIGSYFGGELCGVDVDQDGETELLLIGAPLFYGEQRGGRVFIYQRRQLGFEEVSELQGDPGYPLGRFGEAITALTDINGDGLVDVAVGAPLEEQGAVYIFNGRHGGLSPQPSQRIEGTQVLSGIQWFGRSIHGVKDLEGDGLADVAVGAESQMIVLSSRPVVDMVTLMSFSPAEIPVHEVECSYSTSNKMKEGVNITICFQIKSLIPQFQGRLVANLTYTLQLDGHRTRRRGLFPGGRHELRRNIAVTTSMSCTDFSFHFPVCVQDLISPINVSLNFSLWEEEGTPRDQRAQGKDIPPILRPSLHSETWEIPFEKNCGEDKKCEANLRVSFSPARSRALRLTAFASLSVELSLSNLEEDAYWVQLDLHFPPGLSFRKVEMLKPHSQIPVSCEELPEESRLLSRALSCNVSSPIFKAGHSVALQMMFNTLVNSSWGDSVELHANVTCNNEDSDLLEDNSATTIIPILYPINILIQDQEDSTLYVSFTPKGPKIHQVKHMYQVRIQPSIHDHNIPTLEAVVGVPQPPSEGPITHQWSVQMEPPVPCHYEDLERLPDAAEPCLPGALFRCPVVFRQEILVQVIGTLELVGEIEASSMFSLCSSLSISFNSSKHFHLYGSNASLAQVVMKVDVVYEKQML
notes: integrin αL chain (CD11a), recombinant, Origene TP321297; αL chain alone, without β2, in the SPR experiments; In the functional rows this molecule stands for αLβ2 on Jurkat cells; also called aL; CD11a; source: bought: Origene, catalogue TP321297
